Experimental data published in the nanobody polyreactivity screen of Harvey et al. (2022).

Assay: yeast display, Sf9 membrane polyspecificity reagent, FACS + sequencing; frameworks hold sequencing errors
Outline: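 Galactose-induced (36–48 hours) yeast carrying a synthetic nanobody display library were exposed to 10% biotinylated, detergent-solubilized Sf9 membrane reagent at 4 °C for 1 hour. FACS followed streptavidin microbead enrichment, using low and high (top ~1%) gates for expression (anti-HA) and reagent binding (streptavidin). Colony PCR, MiSeq 2 × 250 sequencing and CDR-length filtering followed. Labels for polyreactivity reflect the gate of origin.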

Sequence | polyreactivity (PSR sort gate)
QVQLVESGGGLVQAGGSLRLSCAASGSIFAPYAMGWYRQAPGKERELVATIRTTGDSTYYADSVKGRFTISRDNAKNTVYLQMNSLKPEDTAVYYCAAQQGVISRGNYWGQGTQVTVSS | low polyreactivity
QVQLVESGGGLVQPGGSLRLSCAASGSIFLRYAMGWYRQAPGKERELVAGITSGGSTNYADSVKGRFTISRDNAKNTVYLQMNSLKPEDTAVYYCNKDLPDWGQGTQVTVSS | low polyreactivity
QVQLVESGGGLVQAGGSLRLSCAASGSIFAKNAMGWYRPAPGTERELVAGIDFSGGSTYYADSVKGRFTISGDNAKNTVYLQMNSLKAEDTAVYYCAADWAYKYELDYWGQGNQVTVSS | low polyreactivity
QVQLVESGGGLVQAGGSLRLSCAASGFIFAYYAMGWYRQAPGKERELVAAITNSGGSTYYADSVKGRFTISRDNAKNTVYLQMNSLKPEDTAVYYCAAVIRPRYYQVRPRYDYWGQGTQVTVSS | low polyreactivity
QVQLVESGGGLVQAGGSLRLSCAASGRIFGVYAMGWYRQAPGKERELFADISWSGSGTYADSVKGRFTISRDNAKNTVYLQMNSLKPEDTAVYYCNVDPAQIHAGYVGYDYWGQGTQVTVSS | low polyreactivity
QVQLVESGGRLVQAGGSLRLSCAASGIIFPYNTMGWYRQSPGKERELVASIDDGGSTNYADSVKGRFTISRDNAKNTVYLQMNSLKPEDTAVYYCNADLFFIYVRQPGYDYWGQGTQVTVSS | low polyreactivity
QVQLVESGGGLVQAGGSLRLSCDASGRIFGYYAMGWYRQAPGKERELVAAISDGGSTDYADSVKGRFTISRDNAKNTVYLQMNSLKPEDTAVYYCNADRLYLYNVEYDYWGQGTQVTVSS | low polyreactivity
QVQLVESGGGLVQGGGSLSLSCAASGSIFLYYAMGWYRQAPGKERELVAGIRRGGRTNYSDSVKGRFTISRDNAKNNVYLQMNSLKPEDTAVDYCAKGGYCGQGTQVTVSS | high polyreactivity
QVQLVESGGGLVQAGGSLRLSCAASGITFYFYAMGWYRQAPGKERELVARITSRGTRTYYADSVKGRFTISRDNAKNTVYLQMNSLKPEDTAVYYCAAGVSWDDYYWGQGTQVTVSS | high polyreactivity
QVQLVESGGGLVQAGGSLRLSCAACGRIFNRYAMGWYRQAPGKERELVAAIRYSGGRTYYADSVKGRFTISRDNAKNTVYLQMNSLKPEDTAVYYCAADGQWYYAPFRGGDYENDYWGQGTQVTVSS | low polyreactivity
QVQLVESGGGLVQAGGSLRLSCAASGIMFFLYAMGWYRQAPGKERELVAAISSGGSTYYAVSVKGRFTISRDNAKNTVYLQMNSLKPEDTAVYYCNARYWPFRYYYWGQGTQVTVSS | high polyreactivity
QVQLVESWGGLVQAGGSHRLSCSASGTILGDYGMGWYRQAPGKEREMVGAITWNGDSTYYADSVKGRFTISRDNAKNTVYLQMNSLKPEDTAVYYCAADLKDYKYYPWYGYWGQGTQVTVSS | low polyreactivity
QVQLVESGGGLVQAGGSLRLSCAASGRIFDYYAMGWYRQAPGKERELVAAITSSGGSTYYADSVKGRFTISRDNAKNTVYLQMNSLKPEDTAVYYCAAGRKVQSRRYGYWGQGTQVTVSS | high polyreactivity
QVQLVESGGGLVQAGGSLRLSCAASGSIFYPYAMGWYRPAPGTERELVASISWSGGSTRYADSVKGRFTISRDNAKNSVYLQMNSLKPEDTAVYYCNAGYRTRHISLYDYWGQGTQVTVSS | high polyreactivity
QVQLVESGVGLVQAGGSLLLSCSSSGRIFDLNAMGWYRQAPGKERELVAVIDRDGSTYYADSVKGRFTISRDNAKNTVYLQMNSLKPEDTAVYYCNKYWYSRHVRYWAYYAEQRYDYWGQGTQVTVSS | low polyreactivity
QVQHVDSGGGLVQAGGSLRLSCAASGRILYSYAMGWYRQAPGKERELVAVITTRGGTYYADSVKGRFTISRDNAKNTVYLQMNSLKPEDTAVYYCNARRYPSYKYDYWGQGTQVTVSS | high polyreactivity
QVQLVESGGRLVQAGGSLRLSCAASGSIFYRYAMGWYRQAPGQERELVATINSDGGDTYYADSVKGRFTISRDNAKNTVSLQMNSLKPEDTAVYYSAKGYYVLYRAWYDSYDYWGQGTQVTVSS | low polyreactivity
QVQLVQSGGGIVQEGGSLRLSCAASGSTFYRNTMGWYRQAPGKERELVAAISRTGASTHYADSVKGRFTISRDNAKNTVYFQMNSLKPEDTAVYYCNAVPAIGKYYGGGYWGQGTQVTVSS | high polyreactivity
QVQLVESGGGLVQAGGSLRLSCAASGSTFVIYTMGGSRQAPGKERELVAAISWSGGITRYADSVKGRFTISRDIAKNTVYLQMNSLKPEDTAVYYCNASQWPSRFDYWGQGTQVSVSS | low polyreactivity
QVQLVESGGGLVQAGGSLRLSCAASGLTFRKYAMGWYRQAPGKERELVAAITRGGSTNYADSVKGRFTISRDNAKNTVYLQMNSLKPEDTAVYYCAAQYTYRFPYPGYATTHDYWGQGTQVTVSS | high polyreactivity
QVQLVESGGRLVQAGGSLRLSCAASGYNFSKYAMGWYRQAPGKERELVAAISGSGGSTSYADSVKGRFTISRDNAKNTVYLHMNSLKPEDTAVYYCNARSRLQRGRMDYWGQGTQVTVSS | high polyreactivity
QVQLVESGGGLVKAGGSLRLSCAASGSTFRPYAMGWYRPAPGKERELVAAITSRGGSTYYADSVKGRFTISRDNAKNTVSLQMNSLKPEDTAVYYCAASYEVVASSYRYYYWGQGTQVTVSS | high polyreactivity

Sequence | polyreactivity (PSR sort gate)
QVQLVESGGGLVQAGGSLRLSCAASGIIFGGYTMGWYRQAPGKERELVAAISSTGASTYYADSVEGRFTISRDNAKNTVYLQMNSLKPEDTAVYYCNAKRAPWGTLYNYWGQGTQVTVSS | high polyreactivity
QVQLVESGGGLVQAGGSLRLSCAASGSTFGEYAMGWYRQAPGKERELVAAITFSGGSTYYADSVKGRFTISRDNAKNTVYLQMNSLKPEDTAVYYCNADGVWVYGYRWEWLWYDYWGQGTQVTVSS | low polyreactivity
QVQLVESGGGLVQAGGSLRLSCAASGRIFPSYAMGRYRQAPGKERELVAAISRSGGRTYYADSVKGRFTISRDNAKNTVYFQMNSLKPEDTAVYYCARYGPYQSSYHYDYWGQGSQVTVSS | high polyreactivity
QVQLVESGGGLVQAGGSLRLSCASSGSTFKYYAMGWYRQSPGKERELVAAISGTGGSTYYADSVKGRFTISRDNAKNTVYLQMNCLKPEDTAVYYCNTYPYIRYDYWGQGTQVTVSS | high polyreactivity
QVQLVESGGGLVQAGGSLRLSCAASGYTFPLYAMGWSRQAPGKEREFVAAISKRSGTTYYADSVKGRFTISRDNAKNTVYLQMNSLKPEDTAVYYCAASNGYQAVTYDYWGQGTQVTVSS | high polyreactivity
QVQLVESGGGLVQAGGSLRLSCAASGTFSFYAMGWYRQAPGKERELVATIRSGGRTYYADSVKGRFTISRDNAKNTVYFQINSLKPEDTAVYYCAKTGFLGLRQYGYWGQGTQVTVSS | high polyreactivity
QVQLVESGGGLVQAGGSLRLSCAASGIIFDGNAMGGYRQAAGKERELVAAHTSSTDSTYYADSVKGRFTISRDNAKNTVYLQMNSLKPEDTAVYYCAADYPSKTFDYWGQGTQVTVSS | low polyreactivity
QVQLVESGGGLVQGGGSLRLSCAASGFTFVYYAMGWDRQAPGKERELVAAISRSGGSTYYADSVKGRFTISRDNAKNTFYLQMNSLKPEDTAVYYCAARKNYGSRLSYEYWGQGTQVSVSS | high polyreactivity
QVQLVESGGGLVQAGGSLRLSCAASGGTFFKNAMGWYRQAPGKERELVAVIDTISTSTYYADSVKGRFTISRDNAKNTVYLQMNSLKPEDTAVYYCAAEYGPGLTEGLYYYWGQGTQVTVSS | high polyreactivity
QVQLVESGGGLVQAGGSLRLSCAASGFTFGNNAMGWYRQAPGKERELVAGISRTGGRTYYADSVKGRYTISRDNAKNTVYFQMNSLKPEDTGVYYCNADSTLYTGYDYWGQGTQVTVSS | high polyreactivity
QVQLVESGGRLVQAGGSLRLSCAASGFIFRSYAMGWYRQAPGKERELVAAISSRGGSTSYADSVKGRFTISRDNAKNTVYLQLNSLKPEDTAVYYCNAYQYPGYGNNYWGQGSQVTVSS | high polyreactivity
QVQLVESGGRLVQAGGSLRLSSAASGRIFKKNAMGRYRQAPGKERELVAAISYRGGSTYYADSVKGRFTISRDNAKNSVYLQMNSLKPVDTAVYYCNVGSRGCWDASDYDYWGQGTQVTVSS | high polyreactivity
QVQLVESGGGLVQAGGSLRLSCAASGRTFSRYAMGWYRQAPGKERELVAAISRSGGITYYADSVKGRFTISRDNAKNTVYLQMNSLKPEDTAVYYCAAYVRGWGGDDYWGQGTQVTVSS | high polyreactivity
QVQLVESGGGLDQAGGSLRLSCAASGSIFGYYAMGWYRQAPGKERELVAAISWSDGSTYYADSVKGRFTISRDNAKNTVYLQMNSLKPEDTAVYSCAARFTPYITSDDGHYDYWGQGTEVTVSS | low polyreactivity
QVQLVESGGGLVQAGGSLRLSCAASGSIFVNNAMGWYRQAPGKERELVAAISSRGGSTYYADSVKGRFTISRDNAKNTVYLQMYSLKPEDTAVYYCAAEYDGPYYSFYPEQRYYWGQGTQVTVSS | low polyreactivity
QVQLVESGGGLVQAGGSLRLSCAASGNTFRSYVMGWYRQAPGKERELVAVITKSGGSTYYADSVKGRFTISRDNAKNTVYLQMNSLKPEDTAVYYCAADRPAYGVGYWGQGTQVTVSS | high polyreactivity
QVQLVESGGGLVQAGGSHRLSCAASGITFYWYAMGWYRQAPGKERELVAAITRSVGSTYYADSVKGRFTISRDNAKNTVYLQMNSLKPEDTAVYYCAADFYYYGFDYWGQGTQVTVSS | low polyreactivity
QVQLVESGGGLVQAGGSLRLSCAASGITFQKYVMGWYRQAPGKEREFVAAITARGGTTYYADSVKGRFTISRDNAKNTVYLQMNSLKPEDTAVYYCAARSYYSGLAYYYWGQGTQVTVSS | high polyreactivity
QVQLVESGVGLVQAGGSLRLSCAASGSIFTYYAMGWYRQAPGKEREFVAGISWSGGRTYYADSVKGRFTISRDNAKNTVYLQMNSLKPEDTAVYYCNRQYRYIPSPCDYWGQGTQVTVSS | low polyreactivity
QVQLVESGGGLVQAGGSLRLSCAASGSTFPQNVMGWYRQAPGKERELVAAITRSAGSTYYADSVKGRFTISRDNAKNTVYLQMNSLKPEDTAVYYCNTGRQRGDGWGQGTQVTVSS | high polyreactivity
QVHLVESGGGLVQAGGSLRLSCAASGFTLANYAMGWYRQPPGKERELVAAIDYSGGGTYYADSVKGRFTISRDNAKNTVYLQMNSLKPEDTAVYYCAARRWSYYSAKYDYWGQGTQVTVSS | low polyreactivity
